Measured values published in the supplement of paper PMC9170038.

The sequences below were run on K4 kissing-loop RNA reporter (assay: apparent KD of K4 kissing-loop reporter; higher = weaker reporter binding). Conditions: Eterna round: R107; input ligand: FMN 200 uM.
Protocol: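 RNA-MaP round R107: designed RNA switches with theophylline, tryptophan, arginine or FMN aptamers are transcribed on-chip within common flanks. They are titrated with a labelled K4 kissing-loop RNA reporter in RNA-MaP buffer (100 mM Tris pH 7.5, 80 mM KCl, 4 mM MgCl2), without ligand or with the indicated ligand. Median apparent KD per design.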
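Note: bound reporter read as fluorescence of individual clusters on recovered sequencing chips by microscopy, with normalized cluster intensities fitted with a binding model.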

Point of comparison: “AUUAUAUUGUGAAGGAGCGCGCAUAGUAGUGAUGUUACUAUGACAUAUCUUAUUUAAUUCUCGCAGGUAGGUCGCACAUUAUAUA [JR_Nu_ExcArginiB_Sub026]”, “apparent KD of K4 kissing-loop reporter” value 0.0925 µM. Against it:
- AAAAGCAGAAAGACGCAUUAAAGAACCGAAGGAGCGCGGAAUUACGCAGGUAGGUCGCGGGAUAAGCGAGUGAUGUUCGCGAAAG [Arginine A Same State; Euphoria Solution] — 1.5-fold lower, 0.0607 µM
- GGAGCAGGUGAAGGAUAUCCCGGGCCAGAGUGAUGUUCUGGAUCCCUUGCCGUUUCUAAACGGGUGGGAGAAGGUCACUGAUAAG [Bibimati] — within 1.5-fold, 0.132 µM
- UAUGCUUGUGCUGAUACCAGUGUUAGUGAUGUUAGGACUGUCAGUAGGAUGCGUGCAUUUCACCCUUGGCAGCAGUAUCGCAGCA [theeternabot_exclusion_KL_Theo_B_48] — 4.8-fold higher, 0.447 µM
- GUUGACAGACUGCAAAACUAGUCAACAGACUAGGAUAUCAGGAAACUGAGAAGGAGUCAAGUUGCAGUGAUGUUGCAAGAAUAAU [KL-SSFMN-A27] — within 1.5-fold, 0.137 µM
- AUAGCUGAUAGCAGUGAUGUUGCUUCAGAUACCAGACGAGAUCAUGUCCCUUGGCAGCUGACAUGGCAAGUGCUAGGUUAGAUGA [#11 K4 Theophylline A Exclusion] — 1.5-fold higher, 0.14 µM
- AACUGUCAAGGACAACAUUACUGCAGUGAUACCAGCAUCGAAAGAUGCCCUUGGCAGCACUAACUUGCAGUGAUGUUGCAAGUAA [BrourdMod 4 - Jieux - Exclusion - Theophylline A] — 3.4-fold higher, 0.313 µM
- GUUAAUAGUAGUGAUGUUACAAUAGUUUGUGAGGAUAUCCCGAAAGGGAGAAGGCACAAACAAAUAGAUUCUCACAAAUAUUUAC [FMN A exclusion] — 2.1-fold higher, 0.191 µM
- CGCGUACAGUGUUCUACGGCCGAGAGUGAUACCAGCCGUAUUUGUGGCCCUUGGCAGCGCAGAUGCAGUGAUGUUGCAUACUUGG [Same State Theophylline A GF 21] — within 1.5-fold, 0.0986 µM
- GCGUGGCAGGCGGCCGCCACUCGGACGAGUCACAGUGAUGUUGUGGUUUGCCAGUCGUCUUCAUCGAGGACCGGGUUUGUUGCGC [Exclusion Tryptophan B GF 18] — 2.2-fold higher, 0.206 µM
- UUUGGUUUCUCGGCCGCCACUCGUUGGUAAUGGGCCUCAGGGAUAUAGUGAUGUUAUGUAAAGAAGAGGACCGGGAGAAGGAAGG [ExTryptoB.Dn] — 2.5-fold higher, 0.235 µM
- AAUAAAAUCACGGCCGCCACUGAUUUCCGUAUUAGGAGUGAUGUUCCUAUGACUAUAUAAUUUAACAGGACCGGGUGAAUAUUUA [#21 K4 Tryptophan B Exclusion] — within 1.5-fold, 0.111 µM
- UGGUUUAACUGAAGGAGCGGCAAUUGAUAAGUAGAUAUAGUGAUGUUAUAUAAGAUAGAGAGCCAGGUAGGUCGCAGAGGUAUUU [ExArgB.P] — 2.3-fold higher, 0.215 µM
- UAUGUACACGGGUAGUGAUACAUCGAGGAAGGAGCGUGCGCAGGCACAGGUAGGUCGCCUCAGCGCACGAGUGAUGUUCGUGGGC [Veti] — 5.1-fold higher, 0.471 µM
- AAGCAGUCACUCGAAGCCAUCGAAGAUGGGCGAGGACCGGUACGGCCGCCACUCGGAGUGAUGUUCCGAAGACUGCAAAAUAAAA — 5.5-fold higher, 0.512 µM
- CUUCGAUUAACAGAUACCAGUCACUUGGGAGCCACACACAAGUGAGUGAUGUUCACUUGUGACCCUUGGCAGCUGUUAGUCGAAG [#04 K4 Theophylline B Exclusion] — within 1.5-fold, 0.102 µM
- CAGAUGUAGGCGGCCGCCACUCUCAUUACCGUACGCAAGUAUGAUUAGAAGUGAUGUUUCUCGGUGAGGACCGGGCCAUUCCCGA [theeternabot_sameState_KL_Trp_B_27] — 7.5-fold higher, 0.69 µM
- GCCGUAGAUGGAAGGAGCGUGGUUAAUGUAAGUGAUGUUUACGAGGUCAACAAUUGACCGCCACAGGUAGGUCGCCAUCUACGGC — 1.5-fold lower, 0.0604 µM
- AUUUUUUUAUCAGGAUAUUAGUGUUGGUUUGUUUUGUUAGUGAUGUUGAUAUUUGUUUUAUGUAUUUAAGAAGGGAUUGAGAUGU [huupullin] — 3.1-fold higher, 0.283 µM
- UGAUACCAGACGGCCGCCACUGCACCAGUCAAUGACUGAGUGUGGUAAUGCUCAGUGAUGUUGAGUAGGACCGGGUCUGGUAUCU [Mod of Eli's TrypBX 8 v2] — within 1.5-fold, 0.135 µM
- AGAUUCGACACGGCCGCCACUUCCAGUGGCUGGUGUCAUGGUGCGCGUGAGUGAUGUUUAUGUGGAAGGACCGGGUGUUGAGUCU [KL-XTryp-B1 #analogue] — 10-fold higher, 0.938 µM
- GUAGCACUUGAUAGUGAUGUUAUCAAGGGCAAGGAUAUCAUCUCAAUGAGAAGGUGUCCUUGAUAACUGCUACGGGAAUAUCCCA [Omei KL FMN A Exc D v6] — 4.8-fold higher, 0.444 µM
- UGAUACCAGACGGCCGCCACUCCCGCAGGUCAAAGACCUGCGAAGCUGGUUCUUCAGUGAUGUUGGAGGACCGGGUCUGGUAUCU [FiskerMod 24 - Jieux - Exclusion - Tryptophan B] — 3.3-fold higher, 0.306 µM
- AUUUAAUUAACUGAUACCAGACUUUAAGUAAUUAUUAAAACUAGUGAUGUUAGUUUAUCUGUCCCUUGGCAGCAGUUUCUACUUA [JR_Nu_ExcTheophyB_Sub020] — 1.6-fold higher, 0.144 µM
- UUGAGCCGGACGGAAGUCCGGCUCUGCGAGCGAGGACCGGUACGGCCGCCACUCGGUGCAGUGAUGUUGCAUGGCCGCAAGGCCG [#2 Exclusion - Tryptophan A Attempt #4 (HarryS)] — 2.9-fold higher, 0.27 µM
- UCGACUGUGUCGGCCGCCACUGGUAUAAACGGACUAUAACGACAUGAGUGAUGUUCAUGUUCGUCUAGGACCGGGACACAAUGUA [Tryp B Ex t3] — within 1.5-fold, 0.102 µM
